Experiment: yeast display, Sf9 membrane polyspecificity reagent, FACS + sequencing; frameworks hold sequencing errors
Outline: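 Using colony PCR, genes from sorted yeast display clones were amplified, then sequenced on MiSeq at 2 × 250 and filtered by CDR length. The clones had been stained with 10% biotinylated, detergent-solubilized Sf9 membrane reagent for 1 hour at 4 °C and sorted by FACS into low and high (top ~1%) gates on anti-HA and streptavidin fluorescence. Polyreactivity labels come from the gate of origin.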

Row | Sequence | polyreactivity (PSR sort gate)
1 | QVQLEESGGGLVQAGGILRLSCAFYYGIGWYRQATGKERELVAAINLGGGSTYYADSVKGLFTISRDNAKNTVYLQMNSLKPEDTAVYYGAADVGSRTYYVKYDYWGQGTEVTVSS | low polyreactivity
2 | QVQLEESGGGLVQAGGRLRLSCAASGRIFSRNAMGGSRTATGKERELVAAISSSTGSTYYADSVKGRFTISRDNAKKTVYLQMNSLKPEDTAVYYCAARYWGDYFTEMNYWGQGTQVTVSS | high polyreactivity
3 | QVQLEESGGGLVQAGGSIRLSCAASGSTFYTNAMGWYRQAPGKERELVAAISSSGDSTYYADSVKGRFTISRDTAKNTVYLQMNSLKPEDTAVYYCNADRRSYNGFRYYYWGQGTQVTVSS | low polyreactivity
4 | QVQLEESGGGLVQAGGSIRLSCAASVSTFVGNAMGWYRKAPGKETEFVATISNSGGRTYYADSVKGRFTISRDNSKNTVYLQMNSLKPEDTAVYFCAADHPAFCPGYSFDYWGQGTQVTVTS | low polyreactivity
5 | QVQLEESGGGLVQAGGSLRFSCAASGRIYRYAMGWYRQAPGKERELVASITYSGGSTYYADSVKGRFTISRDNAKNTVYLQMNSLKPEDTAVYYCAASTRHVHYGYWGQGTQVTVSS | high polyreactivity
6 | QVQLEESGGGLVQAGGSLRISCAASGRTFNYNAIGWYRQAPGKERELVAAITSGGRTNYADSVKGRFTISRDNAKNTVYLQMNSLKPEDTAVYYCATEYYRYRWVGAFRYPVYYWGQGTQVTVSS | low polyreactivity
7 | QVQLEESGGGLVQAGGSLRLICAASGCIFEYNAMGWSRQAPRKEREFVAAINNSGGRTYYADSVKGRFTISRDNANNTVYLQMNSLKPEDTAVYYCAVYSYYRRTYRREMDYWGQGTQVTVSS | high polyreactivity
8 | QVQLEESGGGLVQAGGSLRLRCAASGRTFGYYAMGWYRQAPGKERQLVASITSGGRTYYADSVKGRFTISRDNSKNTVYLQMNSLKPEDTAVFYCAADRFGIGGKSGNDYWGQGTQVTVSS | high polyreactivity
9 | QVQLEESGGGLVQAGGSLRLSCAASGCTLTDYAMGWYIQAPGKERELVAAISSVGSTNYADSVKGRFTISRDNAKNTVYLQMNSLKPEDTAVYYCAVDYGRAVQGDSITYDFNYWGQGTQVNVSS | low polyreactivity
10 | QVQLEESGGGLVQAGGSLRLSCAASGFIFPHYTMGWYRQAPGKERELVAAISSSGGSTYYADSVKGRFTISRDNAKKTVYLQMNSLKPEDTAVYYCPGPLPYYGQYDYWGQGTQVTVSS | low polyreactivity
11 | QVQLEESGGGLVQAGGSLRLSCAASGFIFQYNAMGWYRQAPGKEREFVDAINYSGGNTYYADSVKGRFTISRDTAKNTVYLQMNSLKPEDTAVYYCNVRLWYGRWWYNRYNYWGQGTQVTVSS | high polyreactivity
12 | QVQLEESGGGLVQAGGSLRLSCAASGFIFYQYAMGSYRQAPGKVRELVAAISWNGGRTYYADSVKGRFTISRDNAKNTVYLQMNSLKPEDTAVYYCAAPVLTSDYTLDSYYWGQGTQVTVSS | high polyreactivity
13 | QVQLEESGGGLVQAGGSLRLSCAASGFILEYYAMGWSRQATGKETELVSTISSGGSTNYADSVKGRFTISSDNAKNTVYFQMNRLKPEDTAVFYCAAARYTLSRYYYWGQGTQLTVSS | high polyreactivity
14 | QVQLEESGGGLVQAGGSLRLSCAASGFILTGNVMGWYRQAPGKEREFVAGISRSGGTYYADSVKGRFTISRDNAKNTVYLQMNSLKPEDTAVYYCAAKPIYYSRGYYWGQGTQVTVSS | high polyreactivity
15 | QVQLEESGGGLVQAGGSLRLSCAASGFTFALYAMGWYRPAPRNEMEFVAAISRRGGSTYYADSVKGRFTISRDNAKNTVYLQMNSLKPEDTAVYYCAANYPFGVYHGAPYGYWGQGTQVTVSS | high polyreactivity
16 | QVQLEESGGGLVQAGGSLRLSCAASGFTFAYYAMGWYRQAPGKERELVAGISWRGGRTYYADSVKGRFTISRDNAKNTVYLQMNSLKPEDTAVYYCNARNSYRPGRGYDYGGQGTQVTVSS | high polyreactivity
17 | QVQLEESGGGLVQAGGSLRLSCAASGFTFRRYDMGWYRQAPGKERELVATINRGGSTDSADSVKGRFTISRDNAKNTVYLQMNSLKPEDTAVYYCATRYYSSRTWSEYYYWGQGTQVTVSS | high polyreactivity
18 | QVQLEESGGGLVQAGGSLRLSCAASGFTFSHNAMGWYIQAPGKERELVAAITRDSGSTYYADSVKGRFTISRDNAKNTVYLQMNSLTPEDTAVYYCAADIASGYYWYDYWGQGTQVTVSS | low polyreactivity
19 | QVQLEESGGGLVQAGGSLRLSCAASGFTFWRYGMGWYRQAPRKERELVASITSGGGTNYADSVKGRFTISRDNAKNTVYIQMNSLKPEDTAVYYCNAVFFYHGTKPAFISHDYWGQGTQVTVSS | low polyreactivity
20 | QVQLEESGGGLVQAGGSLRLSCAASGGIFLGYAMGWYRQAPGTERELVAAISDSGGSTDYADSVKGRFTISRDHAKTTVYLQTHSLKPDDTAVYYCAAERRSTAGWLYDYWGQGTQVTVSS | high polyreactivity
21 | QVQLEESGGGLVQAGGSLRLSCAASGGTFAQYVMGWYRQAPGKERELVAAISRTGGRTYYADSVKGRFTISRDNAKNTVYLQMNSLKPEDTAVYYCARVYTSYGTPWTNYDYWGQGTQVTVSS | high polyreactivity
22 | QVQLEESGGGLVQAGGSLRLSCAASGGTFYAYAMGWYRQAPGKERELVAAITRSGGRTYYADSVKGRFTISRDNAKNTVYLQMNSLKPEDTAVYYCAADPHHYSGLDYWGQGTQVTVSS | low polyreactivity

Row | Sequence | polyreactivity (PSR sort gate)
23 | QVQLEESGGGLVQAGGSLRLSCAASGIIFGRYTMGWYREAPGKERELVAAITSSGITYYADSVKGRFTISRDNAKNTVYLQMNSLKPEDTAVYYCAADSPVSVTADDGYWGQGTQVTVSS | low polyreactivity
24 | QVQLEESGGGLVQAGGSLRLSCAASGIIFQRNDMGLYRQAPGKERELVANIRDGGITYADSVKGRFTISRDNAKNTVYLQMNSLKPEDTAVYYCARDDTSPGYCDQSSNAAYYYWGQGTQVTVSS | low polyreactivity
25 | QVQLEESGGGLVQAGGSLRLSCAASGIIFWYYAMGWSRQAPGKERELVAAINSGDSTNYADSVKGRYTISRDNAKNTVYLQMNSLKPEDTAVYYCATVSSYTGGYWGQGTQVTVSS | low polyreactivity
26 | QVQLEESGGGLVQAGGSLRLSCAASGITFERYVMGWYRQAPGKERELVASISRSGSTYYADSVKGRFTISRDNAKNTVYLQMNSLKPEDTAVYYCNADRFWFHWVYSRYHYDYWGQGTQVTVSS | high polyreactivity
27 | QVQLEESGGGLVQAGGSLRLSCAASGITFFHYAMGWSRPAPGKERELVAAITWRGSSTYYADSVKGRFTMSRDNAKNTVYLQMNSLKPEDTAVYYCNAEVGYYEYDYWGQGTQVTVSS | high polyreactivity
28 | QVQLEESGGGLVQAGGSLRLSCAASGITFLRNAMGWYSQAPGKERELVAAISRSGGRTYYADSVKGRFTISRDNAQNTVYLQMNSLKPEDTAVYYCAVVTQFGDGYYWGQGTQVTVSS | high polyreactivity
29 | QVQLEESGGGLVQAGGSLRLSCAASGITFLTYAMGWYRQATVKERELVAGITSGGTTYYADSVKGRFTISRDNAMNTVYLQMNSLKPEDTAVYYCNADLQEYQSYDYWGQGTQVTVSS | low polyreactivity
30 | QVQLEESGGGLVQAGGSLRLSCAASGLIFIYNTMGWYRQAPGKERQLVAAISGRGGSTYYADSVKGRFTISRDNAKNSVYLQMNSLKPEDTAVYYCAAQDTYHSYGLYSWGQGTQVTVSS | low polyreactivity
31 | QVQLEESGGGLVQAGGSLRLSCAASGLTFATYAIGWYRQAPGKERELVAAISRSGGRTYFADSVKGRFTISRDNAKNTVYLQMNSLKPEDTAVYYCNADFYASDDYWGQGTQVTVSS | high polyreactivity
32 | QVQLEESGGGLVQAGGSLRLSCAASGLTFEWYTMGWYRQAPGKERELVAVITVSGSSTYYADSVKGRFSISRDNAKNTVYLQMNSLKPEDTAVYYCNADWSFYSYTLYDYWGQGTQVTVSS | low polyreactivity
33 | QVQLEESGGGLVQAGGSLRLSCAASGLTLYKNGMGWYRQSPGKERELVAVISRSGGRTYYADSVKGRFTISRDNAKNTVYLQMNSLKPDDTAVYYCAARQYGPRYTYYYWGQGTQVTVSS | high polyreactivity
34 | QVQLEESGGGLVQAGGSLRLSCAASGNIFLIYAMGWYRQAPRKEVEMVAAISFSDDTTDYADSVKGRFTSSRDNAKNTVYLQLNSLKQEDTAVYFCAAELYYDVANTQYDYWGQGTQVTVSS | high polyreactivity
35 | QVQLEESGGGLVQAGGSLRLSCAASGNIFWGNAMGWYRQAPGKEMELVAAITSIDSSTYYADSVKGRFTISRDNAKNTVYLQMNSLKPEDTAVYYCAADGDWYGYIWQSDDGYDSWGQGTQVTVSS | low polyreactivity
36 | QVQLEESGGGLVQAGGSLRLSCAASGRIFDVNAMGWYRQAPGKERELVPRITSDGGTYYADSVKGRFTISRDNAKNTVYLQMNSLKPEDTAVYYCNAPYWFSPGYGGFEFGYDYWGQGTQVTVSS | low polyreactivity
37 | QVQLEESGGGLVQAGGSLRLSCAASGRIFEYYAMGWYRQAPGIERELVAAINTGGNTYYADSVKGRFTISRDNAKNTVYLQMNSLKPEDTAVYYCATYPIWYGGYLSGTDYDYWGQGTQVTVSS | low polyreactivity
38 | QVQLEESGGGLVQAGGSLRLSCAASGRIFGGYAMGWYRQAPGKERELVAAISRNGGNTYYADSVKGRFTISRDNAKNTVYLQMNSLKPEDTAVYYCAATYDGTYDYWGQGTQVTVSS | high polyreactivity
39 | QVQLEESGGGLVQAGGSLRLSCAASGRIFKRYAMGWYRQAPGKERELVAAITWSGTRTYYADSVKGRFTISRDNAKNTVYLQMNSLKPEDTAVYYCAADQKYHQRPSEYGYWGQGTQVTVSS | high polyreactivity
40 | QVQLEESGGGLVQAGGSLRLSCAASGRIFPYYTMGWYRQAPGKERELVAAISWSGGSTYYADSVKGRFTISRDNAKNTVYLQMNSLKPEDTAVYYCNVRKVYRYQYRFEYWGQGTQVTVSS | high polyreactivity
41 | QVQLEESGGGLVQAGGSLRLSCAASGRIFSYNAMGWSIPAPGKERELVAAISYSGGRTYYADSVKGRFTISRDNAKNTVYLQMNSLKPEDTAVYYCAAKRKIRGYGPYEYWGQGTQVTVSS | high polyreactivity
42 | QVQLEESGGGLVQAGGSLRLSCAASGRIFYLNAIGWYRQAPRKATELVAAINTSGDSTYYADSVKGRFTISRDNAKNTVYLQMNSLKPEDTAVYYCAAFGIGPDQFIYDYWGQGTKVTVSS | low polyreactivity
43 | QVQLEESGGGLVQAGGSLRLSCAASGRIFYYYTMGWYRQAPGKERELVAAISWGGVNTDYADSVKGRFTISRDNAKNTVYLQMNSLKPEDTAVYYCAAGRWSVGTYDYWGQGTQVTVSS | low polyreactivity

From the nanobody polyreactivity screen of Harvey et al. (2022)
